In article PMC4503265 (The Journal of biological chemistry, 2008):
Numbering of substitutions follows the chain as printed. Names may count otherwise.

B1: wild-type dopamine transporter (DAT^WT), no tag named (natural protein, human, UniProt Q01959 1-620, looked up)
chain: MSKSKCSVGLMSSVVAPAKEPNAVGPKEVELILVKEQNGVQLTSSTLTNPRQSPVEAQDRETWGKKIDFLLSVIGFAVDLANVWRFPYLCYKNGGGAFLVPYLLFMVIAGMPLFYMELALGQFNREGAAGVWKICPILKGVGFTVILISLYVGFFYNVIIAWALHYLFSSFTTELPWIHCNNSWNSPNCSDAHPGDSSGDSSGLNDTFGTTPAAEYFERGVLHLHQSHGIDDLGPPRWQLTACLVLVIVLLYFSLWKGVKTSGKVVWITATMPYVVLTALLLRGVTLPGAIDGIRAYLSVDFYRLCEASVWIDAATQVCFSLGVGFGVLIAFSSYNKFTNNCYRDAIVTTSINSLTSFSSGFVVFSFLGYMAQKHSVPIGDVAKDGPGLIFIIYPEAIATLPLSSAWAVVFFIMLLTLGIDSAMGGMESVITGLIDEFQLLHRHRELFTLFIVLATFLLSLFCVTNGGIYVFTLLDHFAAGTSILFGVLIEAIGVAWFYGVGQFSDDIQQMTGQRPSLYWRLCWKLVSPCFLLFVVVVSIVTFRPPHYGAYIFPDWANALGWVIATSSMAMVPIYAAYKFCSLPGSFREKLAYAIAPEKDRELVDRGEVRQFTLRHWLKV
B2: His-tagged wild-type dopamine transporter (His-DAT^WT) (natural protein, human, UniProt Q01959 1-620, looked up)
chain: B1 chain
B3: Myc-tagged wild-type glycine transporter 2 (Myc-GlyT2^WT) (natural protein, mouse, UniProt Q761V0 1-799, looked up)
chain: MDCSAPKEMNKQPANILEAAVPGHRDSPRAPRTSPEQDLPAEAPAATVQPPRVPRSASTGAQTFQSADARACEAQQSGVGFCNLSSPRAQATSAALRDLSEGHSAQANPPSGPAGAGNALHCKIPALRGPEEDANVSVGKGTLEHNNTPAVGWVNMSQSTVVLGTDGIASVLPGSVATTTIPEDEQGDENKARGNWSSKLDFILSMVGYAVGLGNVWRFPYLAFQNGGGAFLIPYLMMLALAGLPIFFLEVSLGQFASQGPVSVWKAIPALQGCGIAMLIISVLIAIYYNVIICYTLFYLFASFVSVLPWGSCNNPWNTPECKDKTKLLLDSCVIGDHPKIQIKNSTFCMTAYPNLTMVNFTSQTNKTFVSGSEEYFKYFVLKISAGIEYPGEIRWPLAFCLFLAWVIVYASLAKGIKSSGKVVYFTATFPYVVLVILLIRGVTLPGAGAGIWYFITPKWEKLTDATVWKDAATQIFFSLSAAWGGLITLSSYNKFHNNCYRDTLIVTCTNSATSIFAGFVIFSVIGFMANERKVNIENVADQGPGIAFVVYPEALTRLPLSPFWAIIFFLMLLTLGLDTMFATIETIVTSISDEFPKYLRTHKPVFTLGCCICFFIMGFPMITQGGIYMFQLVDTYAASYALVIIAIFELVGISYVYGLQRFCEDIEMMIGFKPNIFWKVCWAFVTPTILTFILCFSFYQWEPMTYGSYRYPNWSMVLGWLMLACSVIWIPIMFVIKMYLAPGRFIERLKLVCSPQPDWGPFLAQHRGERYKNMIDPLGTSSLGLKLPVKDLELGTQC
B4: GlyT2^T464C (no tag named) (natural protein, mouse, UniProt Q761V0 1-799, looked up)
chain: B3 chain with T464C
B5: His-GlyT2^T464C expressed in Xenopus laevis oocytes (natural protein, mouse, UniProt Q761V0 1-799, looked up)
chain: B3 chain with T464C
B6: His- or Myc-tagged GlyT2^T464C (natural protein, mouse, UniProt Q761V0 1-799, looked up)
chain: B3 chain with T464C

Assays:
cross-linking [1] = biological target: the molecule itself; experiment: cross-linking
[2] = biological target: the molecule itself; experiment: SDS-resistant band in nonreducing SDS-PAGE with Western blot
cross-linking [3] = biological target: the molecule itself; experiment: cross-linking; remark: listed apart in the source
pull-down = biological target: the molecule itself; experiment: pull-down

| Protein | stoichiometry N (cross-linking [1]) | further results |
| --- | --- | --- |
| B1 | 2 | – |
| B2 | 2 | – |
| B3 | – | stoichiometry N [2]: 2 |
| B4 | 2 | – |
| B5 | – | stoichiometry N (cross-linking [3]): 2 |
| B6 | – | stoichiometry N (pull-down): 2 |
